The Km is the concentration of substrate that gives half-maximal velocity.

The record followed here is publication PMC11975207, “One‐Pot Hetero‐Di‐C‐Glycosylation of the Natural Polyphenol Phloretin by a Single C‐Glycosyltransferase With Broad Sugar Substrate Specificity” (Biotechnology and Bioengineering, 2025).

What all share (test): HPLC of UDP release, initial rates, Michaelis-Menten fit
Holding throughout (assay type): biochemical, Citrus japonica
What all share (conditions): 1.0 mM phloretin as acceptor, pH 8.0, 30 °C, donor 20-800 µM

Substrate in data set [1]: O=c1ccn([C@@H]2O[C@H](CO[P@@](=O)(O)O[P@@](=O)(O)O[C@H]3O[C@H](CO)[C@@H](O)[C@H](O)[C@H]3O)[C@@H](O)[C@H]2O)c(=O)[nH]1
Substrate in data set [2]: O=c1ccn([C@@H]2O[C@H](COP(=O)(O)OP(=O)(O)O[C@H]3O[C@H](CO)[C@H](O)[C@H](O)[C@H]3O)[C@@H](O)[C@H]2O)c(=O)[nH]1
Substrate in data set [3]: O=c1ccn([C@@H]2O[C@H](COP(=O)(O)OP(=O)(O)O[C@H]3OC[C@@H](O)[C@H](O)[C@H]3O)[C@@H](O)[C@H]2O)c(=O)[nH]1

B1: FcCGT (Citrus japonica) (protein)
chain: MSDSGGFDSHPHVALIPSAGMGHLTPFLRLAASLVQHHCRVTLITTYPTVSLAETQHVSHFLSAYPQVTEKRFHLLPFDPNSANATDPFFLRWEAIRRSAHLLAPLLSPPLSALITDVTLISAVLPVTINLHLPNYVLFTASARMFSLTASFPAIVASKSTSSGSVEFDDDFIEIPGLPPIPLSSVPPAVMDSKSLFATSFLENGNSFVKSNGVLINSFDALEADTLVALNGRRVVAGLPPVYAVGPLLPCEFEKRDDPSTSLILKWLDDQPEGSVVYVSFGSRLALSMEQTKELGNGLLSSGCRFLWVVKGKTVDKEDEESLKNVLGHELMEKIKDQGLVVKNWVDQDKVLSHRAVGGFVSHGGWNSLVEAARHGVPVLVWPQFGDQKINAEAVESAGLGMWVRSWGWGTELRAKGDEIGLKIKDLMANDFLREQAKRIEEEARKAIGVGGSSERTFKELIDKWKCNNNTH
notes: recombinant purified; polypeptide Mr 53600; construct details in supplement and Li et al. 2023
As for B1, the Km came out at 55 ± 2.4 µM in data set [1], 432 ± 26 µM in data set [2] and 122 ± 11 µM in data set [3]. Moreover, the figures for the kcat in data set [1], in data set [2] and in data set [3] were 139 ± 2.5 min–1, 0.28 ± 0.01 min–1 and 15 ± 0.8 min–1, respectively.
